Measured values: patent publication US20180155451A1 (published 2018)

What was measured:
[1] = biological target: T1, FcγRIIIa extracellular domain with C-terminal His tag (human, UniProt P08637 17-208); assay: SPR (Biacore), ratio of KD values for FcγRIIIa
T1 construct: extracellular domain; also called FcgRIIIa; CD16A
Text: GpH7-A57 (SEQ ID NO: 40) resulting from the introduction of all of S239D, A330L, and I332E into GpH7-A5; GpH7-B78 (SEQ ID NO: 41) resulting from the introduction of all of S239D, A330L, and I332E into GpH7-B3; GpH7-TA7 (SEQ ID NO: 31) resulting from the introduction of all of L234Y, G236W, and S298A into GpH7-A5; and GpH7-TA45 (SEQ ID NO: 32) resulting from the introduction of all of L234Y, G236W, and S298A into GpH7-B3. […] The prepared antibodies were compared for the FcγRIIIa-binding activity using, as an indicator, KD for FcγRIIIa that was determined according to the method described in Reference Example 2.
(§1) Analysis of interaction between objective antibody and the FcγR was carried out using Biacore T100 (GE Healthcare). HBS-EP+ (GE Healthcare) was used as the running buffer, and the measurement temperature was set to 25° C. Chips produced by immobilizing the antigen peptide by the amine coupling method to a Series S Sencor Chip CM5 (GE Healthcare), or alternatively, chips produced by allowing preliminarily biotinylated antigen peptides to interact with and immobilize onto a Series S Sensor Chip SA (certified) (GE Healthcare) were used. Antibodies of interest were captured onto an antigen peptide-immobilized chip, and allowed to interact to each FcγR diluted with running buffer. To regenerate and repeatedly use the chip, the antibodies captured on the chip were washed off by reacting 10 mM glycine-HCl, pH 1.5.

[2] = biological target: T1, FcγRIIIa extracellular domain with …; assay: SPR (Biacore), antibody captured on antigen peptide chip, FcγR as analyte
Description: Specifically, GpH7-TA7 and GpH7-TA45 (SEQ ID NO: 32) resulting from the introduction of L234Y, G236W, and S298A into GpH7-A5 and GpH7-B3, respectively, were prepared according to the method described in Reference Example 1. […] These antibodies were compared for the FcγRIIIa binding according to the method described in Reference Example 2 (Table 10).
as §1

[3] = biological target: T1, FcγRIIIa extracellular domain with …; assay: as above; remark: listed apart in the source
Description: GpH7-TA8 (SEQ ID NO: 33) and GpH7-B12 (SEQ ID NO: 12) resulting from the introduction of P329R into GpH7-TA7 and GpH7-B3, respectively, were prepared according to the method described in Reference Example 1.
as §1

[4] = biological target: T1, FcγRIIIa extracellular domain with …; assay: SPR (Biacore), antibody captured, FcγRIIIa as analyte, 1:1 Langmuir kinetic fit
Description: The prepared antibodies were compared for the FcγRIIIa-binding activity using, as an indicator, KD for FcγRIIIa that was determined according to the method described in Reference Example 2.
as §1
The FcγR-binding activity of each antibody was assessed primarily using as an indicator the FcγR-binding activity and dissociation constant for FcγR.

T1 sequence (P08637 17-208): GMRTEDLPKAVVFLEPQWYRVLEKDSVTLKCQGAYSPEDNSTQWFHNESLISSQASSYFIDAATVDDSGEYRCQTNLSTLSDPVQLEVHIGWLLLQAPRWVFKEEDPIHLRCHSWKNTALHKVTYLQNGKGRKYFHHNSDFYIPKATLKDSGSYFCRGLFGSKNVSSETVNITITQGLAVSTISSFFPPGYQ

Row | Binder | KD ratio 1 (KD of GpH7-G1d/GpL16-k0 divided by KD of the antibody) [1] [fold] | KD ratio 2 (KD of GpH7-A5/GpH7-B3/GpL16-k0 divided by KD of the antibody) [1] [fold] | FcγR BINDING ACTIVITY (relative FcγRIIIa binding) [2] | FcγRIIIa BINDING ACTIVITY (relative) [3] | Kd [4] [µM]
1 | GpH7-A5/GpH7-B3/GpL16-k0 (antibody, human IgG1, kappa, also called HeCon Ab; control heterodimerized antibody) heavy 1: not shown heavy 2: not shown light: DIVMTQSPLSLPVTPGEPASISCQASESLVHSNRNTYLHWYLQKPGQSPQLLIYKVSNRFSGVPDRFSGSGSGTDFTLKISRVEAEDVGVYYCSQNTHVPPTFGQGTKVEIERTVAAPSVFIFPPSDEQLKSGTASVVCLLNNFYPREAKVQWKVDNALQSGNSQESVTEQDSKDSTYSLSSTLTLSKADYEKHKVYACEVTHQGLSSPVTKSFNRGEC | 0.75 | 1 | 100 relative, GpH7-A5/GpH7-B3/GpL16-k0 = 100 | 100 relative, GpH7-A5/GpH7-B3/GpL16-k0 = 100 | 1.6
2 | GpH7-TA8/GpH7-B3/GpL16-k0 (antibody, human IgG1, kappa, Heterodimerized anti-glypican-3 IgG1 variant) heavy 1: QVQLVQSGAEVKKPGASVTVSCKASGYTFTDYEMHWIRQPPGEGLEWIGAIDPKTGDTAYSESFQDRVTLTADKSTSTAYMELSSLTSEDTAVYYCTRFYSYTYWGQGTLVTVSSASTKGPSVFPLAPSSKSTSGGTAALGCLVKDYFPEPVTVSWNSGALTSGVHTFPAVLQSSGLYSLSSVVTVPSSSLGTQTYICNVNHKPSNTKVDKKVEPKSCDKTHTCPPCPAPEYLWGPSVFLFPPKPKDTLMISRTPEVTCVVVDVSHEDPEVKFNWYVDGVEVHNAKTKPREEQYNATYRVVSVLTVLHQDWLNGKEYKCKVSNKALRAPIEKTISKAKGQPREPQVYTLPPSRKELTKNQVSLTCLVKGFYPSDIAVEWESNGQPENNYKTTPPVLDSDGSFFLYSKLTVDKSRWQQGNVFSCSVMHEALHNRYTQKSLSLSP heavy 2: not shown light: DIVMTQSPLSLPVTPGEPASISCQASESLVHSNRNTYLHWYLQKPGQSPQLLIYKVSNRFSGVPDRFSGSGSGTDFTLKISRVEAEDVGVYYCSQNTHVPPTFGQGTKVEIERTVAAPSVFIFPPSDEQLKSGTASVVCLLNNFYPREAKVQWKVDNALQSGNSQESVTEQDSKDSTYSLSSTLTLSKADYEKHKVYACEVTHQGLSSPVTKSFNRGEC | – | – | – | 150 relative, GpH7-A5/GpH7-B3/GpL16-k0 = 100 | –

Results, then the binder that gave them:

Row | KD ratio 1 (KD of GpH7-G1d/GpL16-k0 divided by KD of the antibody) [1] [fold] | KD ratio 2 (KD of GpH7-A5/GpH7-B3/GpL16-k0 divided by KD of the antibody) [1] [fold] | FcγR BINDING ACTIVITY (relative FcγRIIIa binding) [2] | FcγRIIIa BINDING ACTIVITY (relative) [3] | Kd [4] [µM] | Binder
3 | 3.8 | 5.1 | 210 relative, GpH7-A5/GpH7-B3/GpL16-k0 = 100 | 210 relative, GpH7-A5/GpH7-B3/GpL16-k0 = 100 | 0.32 | GpH7-TA7/GpH7-B3/GpL16-k0 (antibody, human IgG1, kappa, Heterodimerized anti-glypican-3 IgG1 variant) heavy 1: QVQLVQSGAEVKKPGASVTVSCKASGYTFTDYEMHWIRQPPGEGLEWIGAIDPKTGDTAYSESFQDRVTLTADKSTSTAYMELSSLTSEDTAVYYCTRFYSYTYWGQGTLVTVSSASTKGPSVFPLAPSSKSTSGGTAALGCLVKDYFPEPVTVSWNSGALTSGVHTFPAVLQSSGLYSLSSVVTVPSSSLGTQTYICNVNHKPSNTKVDKKVEPKSCDKTHTCPPCPAPEYLWGPSVFLFPPKPKDTLMISRTPEVTCVVVDVSHEDPEVKFNWYVDGVEVHNAKTKPREEQYNATYRVVSVLTVLHQDWLNGKEYKCKVSNKALPAPIEKTISKAKGQPREPQVYTLPPSRKELTKNQVSLTCLVKGFYPSDIAVEWESNGQPENNYKTTPPVLDSDGSFFLYSKLTVDKSRWQQGNVFSCSVMHEALHNRYTQKSLSLSP heavy 2: not shown light: DIVMTQSPLSLPVTPGEPASISCQASESLVHSNRNTYLHWYLQKPGQSPQLLIYKVSNRFSGVPDRFSGSGSGTDFTLKISRVEAEDVGVYYCSQNTHVPPTFGQGTKVEIERTVAAPSVFIFPPSDEQLKSGTASVVCLLNNFYPREAKVQWKVDNALQSGNSQESVTEQDSKDSTYSLSSTLTLSKADYEKHKVYACEVTHQGLSSPVTKSFNRGEC
4 | – | – | – | 11 relative, GpH7-A5/GpH7-B3/GpL16-k0 = 100 | – | GpH7-TA7/GpH7-B12/GpL16-k0 (antibody, human IgG1, kappa, Heterodimerized anti-glypican-3 IgG1 variant) heavy 1: QVQLVQSGAEVKKPGASVTVSCKASGYTFTDYEMHWIRQPPGEGLEWIGAIDPKTGDTAYSESFQDRVTLTADKSTSTAYMELSSLTSEDTAVYYCTRFYSYTYWGQGTLVTVSSASTKGPSVFPLAPSSKSTSGGTAALGCLVKDYFPEPVTVSWNSGALTSGVHTFPAVLQSSGLYSLSSVVTVPSSSLGTQTYICNVNHKPSNTKVDKKVEPKSCDKTHTCPPCPAPEYLWGPSVFLFPPKPKDTLMISRTPEVTCVVVDVSHEDPEVKFNWYVDGVEVHNAKTKPREEQYNATYRVVSVLTVLHQDWLNGKEYKCKVSNKALPAPIEKTISKAKGQPREPQVYTLPPSRKELTKNQVSLTCLVKGFYPSDIAVEWESNGQPENNYKTTPPVLDSDGSFFLYSKLTVDKSRWQQGNVFSCSVMHEALHNRYTQKSLSLSP heavy 2: not shown light: DIVMTQSPLSLPVTPGEPASISCQASESLVHSNRNTYLHWYLQKPGQSPQLLIYKVSNRFSGVPDRFSGSGSGTDFTLKISRVEAEDVGVYYCSQNTHVPPTFGQGTKVEIERTVAAPSVFIFPPSDEQLKSGTASVVCLLNNFYPREAKVQWKVDNALQSGNSQESVTEQDSKDSTYSLSSTLTLSKADYEKHKVYACEVTHQGLSSPVTKSFNRGEC
5 | 0.37 | 0.49 | 48 relative, GpH7-A5/GpH7-B3/GpL16-k0 = 100 | – | 3.3 | GpH7-TA7/GpH7-TA45/GpL16-k0 (antibody, human IgG1, kappa, the chains differ only in D356K/H435R against K439E) heavy 1: QVQLVQSGAEVKKPGASVTVSCKASGYTFTDYEMHWIRQPPGEGLEWIGAIDPKTGDTAYSESFQDRVTLTADKSTSTAYMELSSLTSEDTAVYYCTRFYSYTYWGQGTLVTVSSASTKGPSVFPLAPSSKSTSGGTAALGCLVKDYFPEPVTVSWNSGALTSGVHTFPAVLQSSGLYSLSSVVTVPSSSLGTQTYICNVNHKPSNTKVDKKVEPKSCDKTHTCPPCPAPEYLWGPSVFLFPPKPKDTLMISRTPEVTCVVVDVSHEDPEVKFNWYVDGVEVHNAKTKPREEQYNATYRVVSVLTVLHQDWLNGKEYKCKVSNKALPAPIEKTISKAKGQPREPQVYTLPPSRKELTKNQVSLTCLVKGFYPSDIAVEWESNGQPENNYKTTPPVLDSDGSFFLYSKLTVDKSRWQQGNVFSCSVMHEALHNRYTQKSLSLSP heavy 2: QVQLVQSGAEVKKPGASVTVSCKASGYTFTDYEMHWIRQPPGEGLEWIGAIDPKTGDTAYSESFQDRVTLTADKSTSTAYMELSSLTSEDTAVYYCTRFYSYTYWGQGTLVTVSSASTKGPSVFPLAPSSKSTSGGTAALGCLVKDYFPEPVTVSWNSGALTSGVHTFPAVLQSSGLYSLSSVVTVPSSSLGTQTYICNVNHKPSNTKVDKKVEPKSCDKTHTCPPCPAPEYLWGPSVFLFPPKPKDTLMISRTPEVTCVVVDVSHEDPEVKFNWYVDGVEVHNAKTKPREEQYNATYRVVSVLTVLHQDWLNGKEYKCKVSNKALPAPIEKTISKAKGQPREPQVYTLPPSRDELTKNQVSLTCLVKGFYPSDIAVEWESNGQPENNYKTTPPVLDSDGSFFLYSKLTVDKSRWQQGNVFSCSVMHEALHNHYTQESLSLSP light: DIVMTQSPLSLPVTPGEPASISCQASESLVHSNRNTYLHWYLQKPGQSPQLLIYKVSNRFSGVPDRFSGSGSGTDFTLKISRVEAEDVGVYYCSQNTHVPPTFGQGTKVEIERTVAAPSVFIFPPSDEQLKSGTASVVCLLNNFYPREAKVQWKVDNALQSGNSQESVTEQDSKDSTYSLSSTLTLSKADYEKHKVYACEVTHQGLSSPVTKSFNRGEC
